Measured values: the MegaScale stability set (Tsuboyama et al. 2023)

B1: EEHEE_rd4_0647 (parent)
chain: MQVTWGNVTVTFSNPEEAKKYAEKVARKLGGQVELHNGQFRIK

Variants of: B1
Experiment: folding stability dG (cDNA display proteolysis); higher = more stable
Settings: PBS, room temperature

Folding stability dG [kcal/mol], by site and new letter:
G30: E 1.59; A 1.88; T 1.34; S 1.98; W 1.74; L 1.85; V 1.45; P 1.04; Y 1.81; D 1.91; C 3.02; R 2.41; K 2.4; Q 2.12; I 1.34; H 2.53; F 1.9; M 2.05; N 2.63
K28: G 2.01; P 0.676; H 2.9; Y 2.97; F 2.97; L 3.15; N 2.29; W 3.23; M 3.09; T 2.54; R 2.98; D 2.47; V 2.87; S 2.51; I 3.18; Q 2.79; A 3.04; C 3.7; E 2.72
G38: M 1.65; K 1.81; H 3.93; R 1.89; I 0.887; L 1.46; T 1.36; E 1.44; W 1.24; S 1.6; Y 1.64; A 1.32; N 2.46; V 0.809; F 1.73; Q 1.67; C 2.88; P 0.661; D 1.91
L35: V 2.83; W 2.63; Y 3.14; E 2.5; M 2.82; H 2.1; G 1.48; R 2.13; A 2.09; Q 2.28; F 3.15; I 2.83; N 1.96; K 2.11; P 1.3; S 2.04; D 1.84; C 2.78; T 2.24
K24: S 2.73; I 2.75; R 2.88; M 3.16; A 3.01; W 3.27; L 2.93; Q 2.8; P -0.146; N 2.5; F 3.2; G 2.37; V 2.59; C 3.81; D 2.73; H 2.89; T 2.61; Y 3.25; E 2.83
A22: Q 0.207; R 0.493; W 1.04; Y 0.931; P -0.509; N 0.101; V 1.43; T 0.682; S 1.24
V33: H 0.75; R 0.477; C 1.95; W 2.13; K 0.686; E 0.359; P 1.22; A 1.82; Y 2.07; Q 0.541; T 1.22; F 1.85; I 2.62; S 1.11; G 0.276; N 0.506; L 2.16; D 0.259; M 1.86
L29: K 1.36; Y 2.63; V 2.77; R 1.62; I 2.96; D 0.761; Q 1.58; C 2.92; W 2.5; N 1.6; T 2.65; E 1.33; H 2.06; M 2.51; G 1.17; A 1.76; F 2.66; S 2.02; P 0.143
F40: D 0.455; G 0.325; E 0.453; A 0.89; C 1.51
A26: F 1; M 1.2; S 1.71; T 0.93; V 1.66; Q 1.06; N 0.851; D 0.03; P -0.236; H 0.769; R 1.38; E 0.315; Y 0.807; L 1.34; G 1.38; I 1.35; C 2.08; K 0.937; W 1.17
H36: I 3.34; M 2.68; S 2.6; W 2.85; L 2.89; Q 2.54; C 3.37; E 2.78; D 2.53; A 2.51; Y 2.79; V 3.35; N 2.33; T 2.6; G 1.8; F 2.79; K 2.66; P 0.326; R 2.58
E23: Q 2.62; D 2.62; W 2.73; K 2.29; I 2.71; R 2.23; H 2.69; P 0.119; S 2.15; M 2.68; V 2.42; C 3.37; N 2.44; G 1.86; L 2.7; F 2.98; A 2.43; Y 3.15; T 2.37
Q39: V 2.99; T 2.69; E 2.72; W 1.7; I 3.09; D 1.96; R 2.45; Y 2.29; K 2.43; S 2.65; N 2.75; P 0.269; L 2.1; A 2.73; M 2.61; C 2.68; F 2.23; G 3.07; H 2.93
G31: E 1.46; H 2.11; D 1.05; F 2.21; W 2.39; C 2.79; K 1.8; R 1.8; T 2.03; Y 2.04; V 2.27; S 2.19; N 1.06; A 2.62; I 2.01; P 0.55; Q 1.87; L 2.6; M 2.53
N37: A 2.05; F 1.9; Q 2.27; E 2.56; P 1.58; G 2.32; H 2.14; D 2.69; S 1.93; K 2.26; L 2.14; T 1.36; Y 1.7; V 1.39; R 1.92; W 1.32; I 1.41; M 2.11
Q32: G 1.77; Y 3.33; W 3.18; F 3.08; A 2.52; L 2.74; K 2.92; E 2.76; M 2.78; P 1.33; I 3.27; V 3.29; C 3.47; D 2.11; R 2.89; N 2.4; S 3; T 3.35; H 2.89
E34: W 2.2; M 2.22; I 2.83; Q 2.25; T 2.44; N 1.6; V 2.81; G 1.41; R 1.78; S 2.23; H 2.17; P 0.384; Y 2.78; F 2.6; A 1.94; K 1.73; D 2.11; L 2.21
R27: Y 2.41; T 2.31; G 2.13; A 2.78; H 2.51; M 2.59; Q 2.64; C 3.21; P 0.58; E 2.61; I 2.52; S 2.4; N 2.37; D 2.18; L 2.75; F 2.45; K 2.88; V 2.36; W 2.3
V25: H 1.01; G 0.217; P -0.34; Q 1.87; R 1.33; E 0.927; F 1.79; W 2.69; M 2.95; L 2.95; N 0.417; S 0.981; T 1.93; A 1.61; I 3.11; K 1.68; D 0.13; Y 1.48
